# Assay results: IntAct's records for PubMed 29039417
# B1: Protein PTHB1 (Homo sapiens), Q3SYG4 (parent)
# chain: MSLFKARDWWSTILGDKEEFDQGCLCLANVDNSGNGQDKIIVGSFMGYLRIFSPHPAKTGDGAQAEDLLLEVDLRDPVLQVEVGKFVSGTEMLHLAVLHSRKLCVYSVSGTLGNVEHGNQCQMKLMYEHNLQRTACNMTYGSFGGVKGRDLICIQSMDGMLMVFEQESYAFGRFLPGFLLPGPLAYSSRTDSFLTVSSCQQVESYKYQVLAFATDADKRQETEQQKLGSGKRLVVDWTLNIGEQALDICIVSFNQSASSVFVLGERNFFCLKDNGQIRFMKKLDWSPSCFLPYCSVSEGTINTLIGNHNNMLHIYQDVTLKWATQLPHIPVAVRVGCLHDLKGVIVTLSDDGHLQCSYLGTDPSLFQAPNVQSRELNYDELDVEMKELQKIIKDVNKSQGVWPMTEREDDLNVSVVVSPNFDSVSQATDVEVGTDLVPSVTVKVTLQNRVILQKAKLSVYVQPPLELTCDQFTFEFMTPDLTRTVSFSVYLKRSYTPSELEGNAVVSYSRPTDRNPDGIPRVIQCKFRLPLKLICLPGQPSKTASHKITIDTNKSPVSLLSLFPGFASQSDDDQVNVMGFHFLGGARITVLASKTSQRYRIQSEQFEDLWLITNELILRLQEYFEKQGVKDFACSFSGSIPLQEYFELIDHHFELRINGEKLEELLSERAVQFRAIQRRLLARFKDKTPAPLQHLDTLLDGTYKQVIALADAVEENQGNLFQSFTRLKSATHLVILLIALWQKLSADQVAILEAAFLPLQEDTQELGWEETVDAAISHLLKTCLSKSSKEQALNLNSQLNIPKDTSQLKKHITLLCDRLSKGGRLCLSTDAAAPQTMVMPGGCTTIPESDLEERSVEQDSTELFTNHRHLTAETPRPEVSPLQGVSE
# partner: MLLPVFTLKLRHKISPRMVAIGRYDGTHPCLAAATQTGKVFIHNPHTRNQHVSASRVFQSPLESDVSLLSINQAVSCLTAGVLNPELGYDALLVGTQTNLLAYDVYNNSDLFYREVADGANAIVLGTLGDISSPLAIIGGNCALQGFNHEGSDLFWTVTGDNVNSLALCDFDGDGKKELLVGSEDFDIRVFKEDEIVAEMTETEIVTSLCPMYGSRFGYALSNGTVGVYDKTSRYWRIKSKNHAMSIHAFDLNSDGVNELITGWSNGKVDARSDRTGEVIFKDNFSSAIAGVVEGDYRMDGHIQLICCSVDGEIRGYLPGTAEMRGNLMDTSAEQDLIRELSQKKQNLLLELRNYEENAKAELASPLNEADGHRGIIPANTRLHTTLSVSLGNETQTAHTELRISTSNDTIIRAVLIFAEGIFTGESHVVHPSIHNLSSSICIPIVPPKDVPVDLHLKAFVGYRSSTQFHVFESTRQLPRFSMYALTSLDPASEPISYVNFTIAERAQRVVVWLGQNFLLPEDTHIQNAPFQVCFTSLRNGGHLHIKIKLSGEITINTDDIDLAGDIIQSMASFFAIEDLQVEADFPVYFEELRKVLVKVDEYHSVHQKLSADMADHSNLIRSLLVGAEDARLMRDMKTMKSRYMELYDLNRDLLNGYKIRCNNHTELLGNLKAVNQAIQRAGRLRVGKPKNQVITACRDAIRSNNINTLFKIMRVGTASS
# Variants of: B1
# Settings: with bbs2_human BBS2, Q9BXC9
row,Variant,effect of a mutation on the interaction
1,S849K,with no effect
2,S849E,with no effect
3,S849A,with no effect
4,Q883K,with no effect
5,Q883E,with no effect
6,Q883A,with no effect
7,F864K,with no effect
8,F864A,with no effect
9,F864E,with no effect
10,H867K,with no effect
11,H867E,with no effect
12,H867A,with no effect
13,P834K,with no effect
14,P834E,with no effect
15,P834A,with no effect
16,G841A,with no effect
17,G841K,with no effect
18,G841E,with no effect
19,E862A,with no effect
20,E862K,with no effect
21,P881A,with no effect
22,P881K,with no effect
23,P881E,with no effect

row,Variant,effect of a mutation on the interaction
1,T861A,with no effect
2,T861K,with no effect
3,T861E,with no effect
4,V879E,with no effect
5,V879A,with no effect
6,V879K,with no effect
7,T845K,with no effect
8,T845E,with no effect
9,T845A,with no effect
10,G842E,with no effect
11,G842K,with no effect
12,G842A,with no effect
13,T865K,with no effect
14,T865A,with no effect
15,T865E,with no effect
16,T874A,with no effect
17,T874E,with no effect
18,T874K,with no effect
19,Q835E,with no effect
20,Q835M,disrupting interaction strength
21,Q835K,with no effect
22,Q835A,with no effect
23,L827E,with no effect

row,Variant,effect of a mutation on the interaction
1,L827A,disrupting interaction strength
2,L827K,with no effect
3,E873K,with no effect
4,E873A,with no effect
5,G822R,disrupting interaction strength
6,L870E,with no effect
7,L870K,with no effect
8,L870A,with no effect
9,T836K,with no effect
10,T836A,with no effect
11,T836E,with no effect
12,N866K,with no effect
13,N866E,with no effect
14,N866A,with no effect
15,A872K,with no effect
16,A872E,with no effect
17,G884A,with no effect
18,G884E,with no effect
19,G884K,with no effect
20,D859E,with no effect
21,D859A,with no effect
22,D859K,with no effect
23,T871K,with no effect

row,Variant,effect of a mutation on the interaction
1,T871A,with no effect
2,T871E,with no effect
3,P847K,with no effect
4,P847A,with no effect
5,P847E,with no effect
6,P847T,disrupting interaction strength
7,C826E,with no effect
8,C826A,with no effect
9,C826K,with no effect
10,E857A,with no effect
11,E857K,with no effect
12,D850K,with no effect
13,D850A,with no effect
14,D850E,with no effect
15,C843K,with no effect
16,C843E,with no effect
17,C843A,with no effect
18,P877K,with no effect
19,P877A,with no effect
20,P877E,with no effect
21,M837K,disrupting interaction strength
22,M837A,with no effect
23,M837E,with no effect
